The source of these data is PMC8458682 (Slas Discovery, 2022).

Data set [1] deals with T1, SARS-CoV-2 M^pro (Severe acute respiratory syndrome coronavirus 2, UniProt P0DTD1). The experiment in a line: biochemical. The settings on record: read-out: Screening: Inhibition @ 50 µM.
The target in data set [2] is T1, SARS-CoV-2 M^pro. The data set is classed as biochemical.
Data set [3] deals with CC(C)C[C@H](NC(=O)[C@@H](NC(=O)[C@@H](NC(=O)[C@@H](NC(=O)c1ccccc1N)C(C)C)C(C)C)[C@@H](C)O)C(=O)N[C@@H](CCC(N)=O)C(=O)N[C@@H](CO)C(=O)NCC(=O)N[C@@H](CNc1ccc([N+](=O)[O-])cc1[N+](=O)[O-])C(=O)N[C@@H](CCCNC(=N)N)C(=O)O. Put plainly: purified protein, by the assay type. The following applies: pH 7.4.
In data set [4] the test system is CC(C)C[C@H](NC(=O)[C@@H](NC(=O)[C@@H](NC(=O)[C@@H](NC(=O)c1ccccc1N)C(C)C)C(C)C)[C@@H](C)O)C(=O)N[C@@H](CCC(N)=O)C(=O)N[C@@H](CO)C(=O)NCC(=O)N[C@@H](Cc1ccc(O)c([N+](=O)[O-])c1)C(=O)N[C@@H](CCCNC(=N)N)C(=O)O. The experiment in a line: purified protein, by the assay type. The settings on record: pH 7.4.
Data set [5] has as its system CC(C)C[C@H](NC(=O)[C@@H](NC(=O)[C@H](C)NC(=O)[C@H](CO)NC(=O)c1ccccc1N)C(C)C)C(=O)N[C@@H](CCC(N)=O)C(=O)N[C@@H](CO)C(=O)NCC(=O)N[C@@H](Cc1ccc(O)c([N+](=O)[O-])c1)C(=O)N[C@@H](CCCNC(=N)N)C(=O)O. The experiment in a line: purified protein, by the assay type. The following applies: pH 7.4.

One may read the inhibition as the share of the control response that was lost under treatment. What is called Hill slope is a measure of the steepness of the concentration-response curve. For orientation: Km means the substrate concentration at which the rate is half of its maximum. The term Vmax denotes the top rate of the reaction or transport when substrate is in excess. Usually kcat stands for the maximal rate divided by the concentration of active sites. As usually defined, the kcat/Km is the second-order rate constant that governs catalysis at low substrate concentration.

For `CC(C)(C)NC(=O)N[C@H](C(=O)N1C[C@H]2[C@@H]([C@H]1C(=O)NC(CC1CCC1)C(=O)C(N)=O)C2(C)C)C(C)(C)C` (some centres unmarked) [Boceprevir], in data set [1], the inhibition at 50 µM was found to be 55.5 ± 4.7%. This compound also gave a Hill slope in data set [2] of 0.85 ± 0.05.

For the compound “SARS-CoV-2 M^pro (Severe acute respiratory syndrome coronavirus 2)”, in data set [3], the Km is 103.3 ± 18.5 µM, the maximal velocity (Vmax) worked out at 0.426 µM/min, the kcat is 0.0237 ± 0.0017 s⁻¹ and the kcat/Km worked out at 229 ± 44.2 M⁻¹ s⁻¹. In addition, in data set [4], the Km stood at 197.9 ± 39.0 µM, the Vmax came out at 1.32 µM/min, the kcat was 0.0733 ± 0.0077 s⁻¹ and the kcat/Km was found to be 370 ± 82.6 M⁻¹ s⁻¹. Besides, in data set [5], the Km amounted to 536.3 ± 156.6 µM, the Vmax is 2.39 µM/min, the kcat stood at 0.133 ± 0.0279 s⁻¹ and the kcat/Km came out at 248 ± 89.2 M⁻¹ s⁻¹.
